B1: ZNF449 (parent)
chain: HKKKSPGEKPHRCPQCGKCFARKS

Variants of: B1
Test: protein stability index of a GFP-peptide fusion (GPS, HEK-293T) (PSI 1-6); higher = more stable
Conditions: c terminus: a fixed tail appended
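Also: lentivirally expressed fusions sorted by FACS into six bins by GFP to DsRed ratio, PSI derived from sequencing read proportions per bin multiplied by bin number.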

Variant | protein stability index
HKKKSPGEKPHRVPQCGKCFARKS | 4.69
HKKKSPGEKPHRHPQCGKCFARKS | 4.07
HKKKSPGEKPHRNPQCGKCFARKS | 4.95
HKKKSPGEKPHRRPQCGKCFARKS | 3.91
HKKKSPGEKPHRWPQCGKCFARKS | 3.15
HKKKSPGEKPHRIPQCGKCFARKS | 4.05
HKKKSPGEKPHRSPQCGKCFARKS | 4.4
HKKKSPGEKPHRFPQCGKCFARKS | 2.71
HKKKSPGEKPHRKPQCGKCFARKS | 4.26
HKKKSPGEKPHRTPQCGKCFARKS | 4.67
HKKKSPGEKPHRDPQCGKCFARKS | 4.36
HKKKSPGEKPHRQPQCGKCFARKS | 3.88
HKKKSPGEKPHRMPQCGKCFARKS | 4.82
HKKKSPGEKPHREPQCGKCFARKS | 4.34
HKKKSPGEKPHRCPQCNKCFARKS | 3.75
HKKKSPGEKPHRCPQCFKCFARKS | 3.79
HKKKSPGEKPHRCPQCDKCFARKS | 3.86
HKKKSPGEKPHRCPQCHKCFARKS | 3.44
HKKKSPGEKPHRCPQCCKCFARKS | 3.31
HKKKSPGEKPHRCPQCWKCFARKS | 3.41
HKKKSPGEKPHRCPQCQKCFARKS | 3.66
HKKKSPGEKPHRCPQCYKCFARKS | 3.6
HKKKSPGEKPARCPQCGKCFARKS | 3.42
HKKKSPGEKPWRCPQCGKCFARKS | 3.54

Variant | protein stability index
HKKKSPGEKPLRCPQCGKCFARKS | 3.19
HKKKSPGEKPTRCPQCGKCFARKS | 3.49
HKKKSPGEKPERCPQCGKCFARKS | 4.17
HKKKSPGEKPCRCPQCGKCFARKS | 4.53
HKKKSPGEKPNRCPQCGKCFARKS | 3.41
HKKKSPGEKPRRCPQCGKCFARKS | 3.08
HKKKSPGEKPYRCPQCGKCFARKS | 3.02
HKKKSPGEKPKRCPQCGKCFARKS | 3.28
HKKKSPGEKPMRCPQCGKCFARKS | 3.18
HKKKSPGEKPDRCPQCGKCFARKS | 3.21
HKKKSPGEKPGRCPQCGKCFARKS | 3.57
HKKKSPGEKPHRCPQCGKDFARKS | 3.66
HKKKSPGEKPHRCPQCGKVFARKS | 3.41
HKKKSPGEKPHRCPQCGKHFARKS | 4.35
HKKKSPGEKPHRCPQCGKIFARKS | 4.05
HKKKSPGEKPHRCPQCGKAFARKS | 3.36
HKKKSPGEKPHRCPQCGKYFARKS | 3.99
HKKKSPGEKPHRCPQCGKNFARKS | 3.79
HKKKSPGEKPHRCPQCGKTFARKS | 3.44
HKKKSPGEKPHRCPQCGKMFARKS | 2.54
HKKKSPGEKPHRCPQCGKFFARKS | 3.48
HKKKSPGEKPHRCSQCGKCFARKS | 3.01
HKKKSPGEKPHRCRQCGKCFARKS | 3
HKKKSPGEKPHRCNQCGKCFARKS | 3.87

Variant | protein stability index
HKKKSPGEKPHRCIQCGKCFARKS | 3.62
HKKKSPGEKPHRCVQCGKCFARKS | 3.75
HKKKSPGEKPHRCFQCGKCFARKS | 2.72
HKKKSPGEKPHRCYQCGKCFARKS | 3.75
HKKKSPGEKPHRCEQCGKCFARKS | 3.79
HKKKSPGEKPHRCWQCGKCFARKS | 2.57
HKKKSPGEKPHRCHQCGKCFARKS | 3.26
HKKKSPGEKPHRCAQCGKCFARKS | 3.01
HKKKSPGEKPHRCTQCGKCFARKS | 3.54
HKKKSPGEKPHRCKQCGKCFARKS | 3.78
HKKKSPIEKPHRCPQCGKCFARKS | 2.94
HKKKSPSEKPHRCPQCGKCFARKS | 3.36
HKKKSPPEKPHRCPQCGKCFARKS | 4.25
HKKKSPNEKPHRCPQCGKCFARKS | 3.52
HKKKSPYEKPHRCPQCGKCFARKS | 3.55
HKKKSPVEKPHRCPQCGKCFARKS | 3.76
HKKKSPAEKPHRCPQCGKCFARKS | 3.46
HKKKSPFEKPHRCPQCGKCFARKS | 3.53
HKKKSPTEKPHRCPQCGKCFARKS | 3.58
HKKKSPQEKPHRCPQCGKCFARKS | 3.2
HKKKSPMEKPHRCPQCGKCFARKS | 3.46
HKKKSPGEKPHRCPQCGKCFARNS | 2.72
HKKKSPGEKPHRCPQCGKCFARLS | 2.04
HKKKSPGEKPHRCPQCGKCFARFS | 1.75

Variant | protein stability index
HKKKSPGEKPHRCPQCGKCFARGS | 3.12
HKKKSPGEKPHRCPQCGKCFARIS | 2.09
HKKKSPGEKPHRCPQCGKCFARDS | 3.57
HKKKSPGEKPHRCPQCGKCFARES | 2.5
HKKKSPGEKPHRCPQCGKCHARKS | 4.62
HKKKSPGEKPHRCPQCGKCLARKS | 4.18
HKKKSPGEKPHRCPQCGKCSARKS | 3.63
HKKKSPGEKPHRCPQCGKCPARKS | 1.49
HKKKSPGEKPHRCPQCGKCAARKS | 3.64
HKKKSPGEKPHRCPQCGKCEARKS | 4.11
HKKKSPGEKPHRCPQCGKCDARKS | 4.04
HKKKSPGEKPHRCPQCGKCNARKS | 5.19
HKKKSPGEKPHRCPQCGKCIARKS | 4.38
HKKKSPGEKPHRCPQCGKCYARKS | 3.67
HKKKSPGEKPHRCPQCGKCVARKS | 3.97
HKKKSPGEKPHRCPQCGKCRARKS | 3.96
HKKKSPGEKPHRCPQCGKCFANKS | 3.45
HKKKSPGEKPHRCPQCGKCFAMKS | 3.33
HKKKSPGEKPHRCPQCGKCFAHKS | 3.83
HKKKSPGEKPHRCPQCGKCFAKKS | 3.83
HKKKSPGEKPHRCPQCGKCFATKS | 4.06
HKKKSPGEKPHRCPQCGKCFASKS | 2.92

— the supplement of paper PMC10567573
